Results: PMC3707082

Key:
[1] = target: C-terminally truncated PTEN (t-PTEN, aa 1-378) (human) (UniProt P60484)
[2] = target: C-terminally truncated PTEN (t-PTEN, aa 1-378) (human) (UniProt P60484); remark: listed apart in the source

inhibition of t-PTEN soluble PIP3 (diC6-PIP3) phosphatase activity by the peptide in trans, malachite green phosphate release, IC50 [1]: 1000 nM
extent of inhibition of the lipid phosphatase activity of t-PTEN by 4p-25mer with soluble PIP3 substrate [2]: > 95%
Substance: synthetic C-tail tetraphosphorylated peptide (aa 379-403, 4p-25mer) (from UniProt P60484 379-403)
